For 2 substances, non-specific binding as share of total binding, Kd and sites per cell (sites per cell) results are on record in patent US8334254.

The target of test [1] is enterocytic lactoferrin receptor on HT-29-18C1 enterocytic cells (human). Nature of the test: 125I-labelled ligand on HT29 cells with 100 molar excess of non-labelled native Lf.
The target of test [2] is lymphocytic lactoferrin receptor on Jurkat T lymphoblastic cells. Nature of the test: 125I-labelled ligand on Jurkat cells with 100 molar excess of non-labelled native Lf.
Test [3] has as its target enterocytic lactoferrin receptor on HT-29-18C1 enterocytic cells (human). Kind of test: 125I-labelled ligand binding to HT-29-18C1 cells on ice, Scatchard analysis.
Test [4] addresses lymphocytic lactoferrin receptor on Jurkat T lymphoblastic cells. Nature of the test: 125I-labelled ligand binding to Jurkat cells at 4° C., Scatchard analysis.

By Kd is commonly meant the equilibrium constant for the complex coming apart. A lower Kd goes with tighter binding.

For “human lactoferrin isolated from human milk (from UniProt P02788 20-710) (ligand)”, the non-specific binding as share of total binding in test [1] and in test [2] was 25% throughout. Further, the results for the Kd in test [3] and in test [4] were 1 µM and 0.0897 µM, respectively. The substance also returned a sites per cell (sites per cell) in test [3] of 4e+06.
For “recombinant human lactoferrin rhLf2 from pBIOC21-PSSp-Lf, purified from tobacco leaves (transformant T30) (from UniProt P02788 20-710) (ligand)”, the non-specific binding as share of total binding in test [1] and in test [2] was 25% in each case. Moreover, the Kd in test [3] came to 0.8 µM; in test [4], 0.0803 µM. This substance returned a sites per cell (sites per cell) in test [3] of 1.8e+06.
